Source: patent US9458437B2, “Neuroprotective peptides that inhibit interaction between palmitoyl acyl transferase zinc-finger DHHC type containing 17 (zD17) and c-jun N-terminal kinase (JNK)” (The University of British Columbia, priority 2011, dated 2016)

Legend:
[1] = target: T1, zD17-JNK2 interaction (Rattus norvegicus, UniProt P49186); assay: co-immunoprecipitation of zD17 with JNK2 in neuronal cultures; format: cell-based; details: NMDA
T1 construct: endogenous in cells; host or cells: primary cortical neurons of embryonic Wistar rat
Procedure: All animal experiments were approved by the Animal Care Committee of the University of British Columbia. Primary cortical cultures were prepared from Wistar rat (UBC Animal Care Centre, Vancouver, BC, Canada) brains at embryonic days 18-19. Cultures were maintained in Neurobasal medium supplemented with B27 and 0.5 mM glutamax (Invitrogen™) as described previously (Yang et al., 2009).
(§1) The protocols for protein extraction have been described previously (Yang et al., 2009). For co-immunoprecipitation, cultured cells were washed with ice-cold PBS followed by incubation with 0.5 ml Gentle Lysis Buffer (GLB) containing 25 mM Tris-HCl (pH 7.4), 2 mM EDTA, 1 mM EGTA, 10 mM NaCl, 0.5% Triton X-100 and 10% Glycerol supplemented with the Complete Protease Inhibitor Tablets (Roche Applied Science™, Indianapolis, Ind., USA) and 1 mM PMSF. Total protein concentration was determined with the BioRad™ Protein Assay kit. Lysates were first precleaned by incubating with Protein A-Sepharose beads (Roche Applied Science™) for 1 h at 4° C., followed by incubation with indicated antibodies (>16 h at 4° C.) and protein A Sepharose bead (2 h at 4° C.). Lysates of rat brain tissues were precleaned with IgG and protein A-beads. Immunoprecipitates were washed three times with GLB buffer; boiled in 2× loading buffer with 1 mM dithiothreitol (DTT) for 3 min; and analyzed with SDS-PAGE as described previously (Yang et al., 2009). The relative intensities of the bands on immunoblots were analyzed and quantified using Image J™ (NIH).

[2] = target: T2, JNK1 (Rattus norvegicus, UniProt P49185); assay: kinase assay (KA) on JNK1 immunoprecipitated from cell lysates; format: cell-based; details: for JNK1 activity normalized to 0 h: NMDA + NIMoE
T2 construct: JNK is immunoprecipitated from the cell lysate; endogenous in cells; host or cells: rat primary neuronal cultures; JNK1 immunoprecipitated from lysate
Procedure: JNK activity was measured with an in vitro kinase assay as described elsewhere (see, for e.g.: Khatlani et al., 2007). Briefly, cell lysates were prepared and JNK was immunoprecipitated with specific antibodies. The immnoprecipitates were then resuspended in 1× kinase buffer (Cell Signaling Technology™) supplemented with 200 μM ATP and 250 μg/ml GST-c-jun (1-89), and incubated at 30° C. for 30 min. Reactions were terminated by the addition of SDS-PAGE sample buffer. Phosphorylated c-jun was resolved by SDS-PAGE and detected with anti-p-c-jun.

[3] = target: zD17-JNK3 interaction (Rattus norvegicus, UniProt P49187); assay: zD17-JNK3 interaction in the injured hemisphere after MCAo; format: in vivo, Sprague-Dawley rat; set-up: Lysates of rat brain tissues were precleaned with IgG and protein A-beads; from tissue; host or cells: brain (injured left hemisphere) of adult male Sprague-Dawley rats; details: single intravenous injection 30 min before MCAo
Procedure: as §1, with “Lysates were first precleaned by incubating with Protein A-Sepharose beads (Roche Applied Science™) for 1 h at 4° C., followed by incubation with indicated antibodies (>16 h at 4° C.) and protein A Sepharose bead (2 h at 4° C.). Lysates of rat brain tissues were precleaned with IgG and protein A-beads.” left out, “(NIH). […]” for “(NIH).”
Peptides were synthesized by PepMetric Technologies™ or GL Biochem™ (Shanghai, China). […] Injections of NIMoEscr and NIMoEsh were made, brain damage was assessed and functional evaluations performed in a double-blind manner To examine the delivery of the peptide into the brain, 5 mg/kg FITC-labelled NIMoE or only saline was intravenously injected 1 h before perfusion. […]

[4] = tested on: middle cerebral artery occlusion (MCAo); assay: transient MCAo in SD rats, neurological scores; format: in vivo, Sprague-Dawley rat
Procedure: Adult male Sprague-Dawley (SD) rats weighing 250-290 g were employed for transient middle cerebral artery occlusion. Rats were anaesthetized with 5% isofluorane and maintained with 2% isofluorane in 70% N2O and 30% O2 using a face mask. 5 mg/kg ketoprofen was given pre-surgery to block pain. Rectal temperature was maintained at 37° C. during surgery with a homeothermic blanket system (Harvard Apparatus™, Holliston, Mass.). The scalp was incised at the midline and the skull was exposed. The skull was thinned with a dental drill at a region ipsilateral to the expected ischemia zone (2 mm posterior and 5 mm lateral from the bregma). […]
Peptides were synthesized by PepMetric Technologies™ or GL Biochem™ (Shanghai, China). […] Injections of NIMoEscr and NIMoEsh were made, brain damage was assessed and functional evaluations performed in a double-blind manner To examine the delivery of the peptide into the brain, 5 mg/kg FITC-labelled NIMoE or only saline was intravenously injected 1 h before perfusion. […] After rapid freezing in Tissue-Tek™ embedding medium (Sakura™, Torrance, Calif.) on dry ice, 20 μm sections were cut on a cryostat (Leica™ CM3050, Ontario, Canada) and examined for FITC fluorescence by a laser microscopy (Zeiss™, Axiovert 200). […]

T2 sequence (P49185 whole entry): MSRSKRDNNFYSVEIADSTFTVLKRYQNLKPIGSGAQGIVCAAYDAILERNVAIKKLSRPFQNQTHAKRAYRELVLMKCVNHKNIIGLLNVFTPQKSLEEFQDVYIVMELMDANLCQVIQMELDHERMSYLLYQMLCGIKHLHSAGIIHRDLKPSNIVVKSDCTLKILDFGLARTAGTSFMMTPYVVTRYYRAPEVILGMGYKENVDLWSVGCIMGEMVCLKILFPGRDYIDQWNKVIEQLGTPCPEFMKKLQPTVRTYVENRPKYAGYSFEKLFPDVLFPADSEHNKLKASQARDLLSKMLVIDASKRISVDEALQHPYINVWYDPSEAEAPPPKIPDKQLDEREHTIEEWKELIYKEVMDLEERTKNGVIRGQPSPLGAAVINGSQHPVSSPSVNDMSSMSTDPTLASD
Sequence of zD17-JNK3 interaction (P49187 whole entry): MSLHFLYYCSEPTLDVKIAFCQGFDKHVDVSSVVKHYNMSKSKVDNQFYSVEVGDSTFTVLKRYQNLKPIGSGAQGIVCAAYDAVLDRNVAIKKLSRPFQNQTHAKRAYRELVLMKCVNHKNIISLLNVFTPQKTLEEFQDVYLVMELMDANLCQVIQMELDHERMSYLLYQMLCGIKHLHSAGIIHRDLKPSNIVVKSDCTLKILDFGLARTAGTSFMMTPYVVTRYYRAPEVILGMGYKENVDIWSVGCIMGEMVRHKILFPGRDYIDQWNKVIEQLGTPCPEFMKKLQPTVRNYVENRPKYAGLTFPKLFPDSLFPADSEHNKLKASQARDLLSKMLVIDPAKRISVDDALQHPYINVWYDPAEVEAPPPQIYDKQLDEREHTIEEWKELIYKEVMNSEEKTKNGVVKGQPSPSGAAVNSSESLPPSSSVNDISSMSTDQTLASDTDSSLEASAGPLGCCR

Sequence	enhancement of the JNK2-zD17 interaction [1]	JNK1 activity normalized to 0 h ([2]; 0.5 h)	JNK1 activity normalized to 0 h ([2]; 1 h)	normal activation of JNK1 ([2]; NMDA, neuronal cultures)	enhancement of the zD17-JNK3 interaction after MCAo [3]	behavioural deficits evaluated with neurological scores ([4]; NIMoEsh administration, MCAo rats)	duration of improvement of behavioural performance ([4]; injected 2 h post-surgery, double-blinded)
MTPLMWAAYRTHSVDPTRLL (listed as Homo sapiens) [NIMoE, peptide comprising motif-E of zD17, fused to the cell-membrane transduction domain of HIV-1 Tat for cell experiments]	eliminated the enhancement	104.3±2.6%	168.5±3.3%	did not inhibit			
WAAYRTHSVD (listed as Homo sapiens) [NIMoEsh, shorter 10mer of NIMoE, primarily the loop region of motif-E (zD17 196-205)]					effectively attenuated	substantially reduced	persisted over 14 days
